According to publication PMC12416549 (2024):

Biological target: T1, TNFR1 (Homo sapiens, UniProt P19438)
T1 chain: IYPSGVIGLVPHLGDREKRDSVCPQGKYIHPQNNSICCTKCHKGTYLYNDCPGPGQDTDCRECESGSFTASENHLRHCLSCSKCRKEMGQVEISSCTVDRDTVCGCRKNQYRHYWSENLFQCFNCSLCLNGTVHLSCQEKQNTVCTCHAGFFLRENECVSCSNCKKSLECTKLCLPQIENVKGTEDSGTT
Experiment: yeast display SC50

B1: P32L (designed binder)
chain: MTLQELLREEALRRAEAEAFRYALELLAEKFLEQKEYLLDLAEEIESQIRSLSGVDVEDVRKFLDKEWAWVKELLAEHPAELAEVEAARAARLAELRAEVEAKVAA
apparent Kd (screen): 0.593 nM

B2: E67W (designed binder)
chain: MTLQELLREEALRRAEAEAFRYALELLAEKFPEQKEYLLDLAEEIESQIRSLSGVDVEDVRKFLDKWWAWVKELLAEHPAELAEVEAARAARLAELRAEVEAKVAA
apparent Kd (screen): 10.4 nM

B3: E9P (designed binder)
chain: MTLQELLRPEALRRAEAEAFRYALELLAEKFPEQKEYLLDLAEEIESQIRSLSGVDVEDVRKFLDKEWAWVKELLAEHPAELAEVEAARAARLAELRAEVEAKVAA
apparent Kd (screen): 20.2 nM

B4: R92M (designed binder)
chain: MTLQELLREEALRRAEAEAFRYALELLAEKFPEQKEYLLDLAEEIESQIRSLSGVDVEDVRKFLDKEWAWVKELLAEHPAELAEVEAARAAMLAELRAEVEAKVAA
apparent Kd (screen): 0.593 nM

B5: A28P (designed binder)
chain: MTLQELLREEALRRAEAEAFRYALELLPEKFPEQKEYLLDLAEEIESQIRSLSGVDVEDVRKFLDKEWAWVKELLAEHPAELAEVEAARAARLAELRAEVEAKVAA
apparent Kd (screen): 2.05 nM

B6: Y22P (designed binder)
chain: MTLQELLREEALRRAEAEAFRPALELLAEKFPEQKEYLLDLAEEIESQIRSLSGVDVEDVRKFLDKEWAWVKELLAEHPAELAEVEAARAARLAELRAEVEAKVAA
apparent Kd (screen): 4.39 nM

B7: L39F (designed binder)
chain: MTLQELLREEALRRAEAEAFRYALELLAEKFPEQKEYLFDLAEEIESQIRSLSGVDVEDVRKFLDKEWAWVKELLAEHPAELAEVEAARAARLAELRAEVEAKVAA
apparent Kd (screen): 0.189 nM

B8: Y37G (designed binder)
chain: MTLQELLREEALRRAEAEAFRYALELLAEKFPEQKEGLLDLAEEIESQIRSLSGVDVEDVRKFLDKEWAWVKELLAEHPAELAEVEAARAARLAELRAEVEAKVAA
apparent Kd (screen): 5.31 nM

B9: R89D (designed binder)
chain: MTLQELLREEALRRAEAEAFRYALELLAEKFPEQKEYLLDLAEEIESQIRSLSGVDVEDVRKFLDKEWAWVKELLAEHPAELAEVEAADAARLAELRAEVEAKVAA
apparent Kd (screen): 2.48 nM

B10: A102W (designed binder)
chain: MTLQELLREEALRRAEAEAFRYALELLAEKFPEQKEYLLDLAEEIESQIRSLSGVDVEDVRKFLDKEWAWVKELLAEHPAELAEVEAARAARLAELRAEVEWKVAA
apparent Kd (screen): 0.539 nM

B11: Q34D (designed binder)
chain: MTLQELLREEALRRAEAEAFRYALELLAEKFPEDKEYLLDLAEEIESQIRSLSGVDVEDVRKFLDKEWAWVKELLAEHPAELAEVEAARAARLAELRAEVEAKVAA
apparent Kd (screen): 5.31 nM

B12: L96I (designed binder)
chain: MTLQELLREEALRRAEAEAFRYALELLAEKFPEQKEYLLDLAEEIESQIRSLSGVDVEDVRKFLDKEWAWVKELLAEHPAELAEVEAARAARLAEIRAEVEAKVAA
apparent Kd (screen): 0.869 nM

B13: H78G (designed binder)
chain: MTLQELLREEALRRAEAEAFRYALELLAEKFPEQKEYLLDLAEEIESQIRSLSGVDVEDVRKFLDKEWAWVKELLAEGPAELAEVEAARAARLAELRAEVEAKVAA
apparent Kd (screen): 0.593 nM

B14: L41Q (designed binder)
chain: MTLQELLREEALRRAEAEAFRYALELLAEKFPEQKEYLLDQAEEIESQIRSLSGVDVEDVRKFLDKEWAWVKELLAEHPAELAEVEAARAARLAELRAEVEAKVAA
apparent Kd (screen): 2.48 nM

B15: I45F (designed binder)
chain: MTLQELLREEALRRAEAEAFRYALELLAEKFPEQKEYLLDLAEEFESQIRSLSGVDVEDVRKFLDKEWAWVKELLAEHPAELAEVEAARAARLAELRAEVEAKVAA
apparent Kd (screen): 3.63 nM

B16: E44G (designed binder)
chain: MTLQELLREEALRRAEAEAFRYALELLAEKFPEQKEYLLDLAEGIESQIRSLSGVDVEDVRKFLDKEWAWVKELLAEHPAELAEVEAARAARLAELRAEVEAKVAA
apparent Kd (screen): 20.2 nM

B17: R61M (designed binder)
chain: MTLQELLREEALRRAEAEAFRYALELLAEKFPEQKEYLLDLAEEIESQIRSLSGVDVEDVMKFLDKEWAWVKELLAEHPAELAEVEAARAARLAELRAEVEAKVAA
apparent Kd (screen): 0.593 nM

B18: K30Q (designed binder)
chain: MTLQELLREEALRRAEAEAFRYALELLAEQFPEQKEYLLDLAEEIESQIRSLSGVDVEDVRKFLDKEWAWVKELLAEHPAELAEVEAARAARLAELRAEVEAKVAA
apparent Kd (screen): 0.718 nM

B19: E77C (designed binder)
chain: MTLQELLREEALRRAEAEAFRYALELLAEKFPEQKEYLLDLAEEIESQIRSLSGVDVEDVRKFLDKEWAWVKELLACHPAELAEVEAARAARLAELRAEVEAKVAA
apparent Kd (screen): 1.16 nM

B20: L74G (designed binder)
chain: MTLQELLREEALRRAEAEAFRYALELLAEKFPEQKEYLLDLAEEIESQIRSLSGVDVEDVRKFLDKEWAWVKEGLAEHPAELAEVEAARAARLAELRAEVEAKVAA
apparent Kd (screen): 6.43 nM

B21: Q48T (designed binder)
chain: MTLQELLREEALRRAEAEAFRYALELLAEKFPEQKEYLLDLAEEIESTIRSLSGVDVEDVRKFLDKEWAWVKELLAEHPAELAEVEAARAARLAELRAEVEAKVAA
apparent Kd (screen): 1.54 nM

B22: D56L (designed binder)
chain: MTLQELLREEALRRAEAEAFRYALELLAEKFPEQKEYLLDLAEEIESQIRSLSGVLVEDVRKFLDKEWAWVKELLAEHPAELAEVEAARAARLAELRAEVEAKVAA
apparent Kd (screen): 2.73 nM

B23: A105V (designed binder)
chain: MTLQELLREEALRRAEAEAFRYALELLAEKFPEQKEYLLDLAEEIESQIRSLSGVDVEDVRKFLDKEWAWVKELLAEHPAELAEVEAARAARLAELRAEVEAKVVA
apparent Kd (screen): 0.718 nM

B24: E5H (designed binder)
chain: MTLQHLLREEALRRAEAEAFRYALELLAEKFPEQKEYLLDLAEEIESQIRSLSGVDVEDVRKFLDKEWAWVKELLAEHPAELAEVEAARAARLAELRAEVEAKVAA
apparent Kd (screen): 0.49 nM

B25: D65W (designed binder)
chain: MTLQELLREEALRRAEAEAFRYALELLAEKFPEQKEYLLDLAEEIESQIRSLSGVDVEDVRKFLWKEWAWVKELLAEHPAELAEVEAARAARLAELRAEVEAKVAA
apparent Kd (screen): 0.79 nM

B26: S51A (designed binder)
chain: MTLQELLREEALRRAEAEAFRYALELLAEKFPEQKEYLLDLAEEIESQIRALSGVDVEDVRKFLDKEWAWVKELLAEHPAELAEVEAARAARLAELRAEVEAKVAA
apparent Kd (screen): 0.869 nM

B27: L3I (designed binder)
chain: MTIQELLREEALRRAEAEAFRYALELLAEKFPEQKEYLLDLAEEIESQIRSLSGVDVEDVRKFLDKEWAWVKELLAEHPAELAEVEAARAARLAELRAEVEAKVAA
apparent Kd (screen): 0.539 nM

B28: L52W (designed binder)
chain: MTLQELLREEALRRAEAEAFRYALELLAEKFPEQKEYLLDLAEEIESQIRSWSGVDVEDVRKFLDKEWAWVKELLAEHPAELAEVEAARAARLAELRAEVEAKVAA
apparent Kd (screen): 0.405 nM

B29: E43A (designed binder)
chain: MTLQELLREEALRRAEAEAFRYALELLAEKFPEQKEYLLDLAAEIESQIRSLSGVDVEDVRKFLDKEWAWVKELLAEHPAELAEVEAARAARLAELRAEVEAKVAA
apparent Kd (screen): 0.79 nM

B30: D40F (designed binder)
chain: MTLQELLREEALRRAEAEAFRYALELLAEKFPEQKEYLLFLAEEIESQIRSLSGVDVEDVRKFLDKEWAWVKELLAEHPAELAEVEAARAARLAELRAEVEAKVAA
apparent Kd (screen): 18.3 nM

B31: R8D (designed binder)
chain: MTLQELLDEEALRRAEAEAFRYALELLAEKFPEQKEYLLDLAEEIESQIRSLSGVDVEDVRKFLDKEWAWVKELLAEHPAELAEVEAARAARLAELRAEVEAKVAA
apparent Kd (screen): 0.593 nM

B32: A98F (designed binder)
chain: MTLQELLREEALRRAEAEAFRYALELLAEKFPEQKEYLLDLAEEIESQIRSLSGVDVEDVRKFLDKEWAWVKELLAEHPAELAEVEAARAARLAELRFEVEAKVAA
apparent Kd (screen): 0.593 nM

B33: A102M (designed binder)
chain: MTLQELLREEALRRAEAEAFRYALELLAEKFPEQKEYLLDLAEEIESQIRSLSGVDVEDVRKFLDKEWAWVKELLAEHPAELAEVEAARAARLAELRAEVEMKVAA
apparent Kd (screen): 0.718 nM

B34: W68I (designed binder)
chain: MTLQELLREEALRRAEAEAFRYALELLAEKFPEQKEYLLDLAEEIESQIRSLSGVDVEDVRKFLDKEIAWVKELLAEHPAELAEVEAARAARLAELRAEVEAKVAA
apparent Kd (screen): 0.79 nM

B35: R97V (designed binder)
chain: MTLQELLREEALRRAEAEAFRYALELLAEKFPEQKEYLLDLAEEIESQIRSLSGVDVEDVRKFLDKEWAWVKELLAEHPAELAEVEAARAARLAELVAEVEAKVAA
apparent Kd (screen): 0.49 nM
